Test results: publication PMC9293640, “Insights into the structural dynamics and helicase-catalyzed unfolding of plant RNA G-quadruplexes”

Assays:
DExH1 = biological target: T1, DExH1 (Arabidopsis thaliana, UniProt F4ILR7 1-995); experiment: MST; preferred substrate (3' tail rG4); EC50 only in figure; MST: 20 nM FAM-RNA, buffer not in material; pull-down: 20 mM Tris-HCl pH 7.5, 300 mM KCl, 0.1% Tween-20, 2 mM EDTA, RNase inhibitor, 4 °C 4 h; details: protein: recombinant; tags: 6xHis-SUMO removed; label: 3'-FAM; G4, 3' ss tail 15 nt
T1 sequence: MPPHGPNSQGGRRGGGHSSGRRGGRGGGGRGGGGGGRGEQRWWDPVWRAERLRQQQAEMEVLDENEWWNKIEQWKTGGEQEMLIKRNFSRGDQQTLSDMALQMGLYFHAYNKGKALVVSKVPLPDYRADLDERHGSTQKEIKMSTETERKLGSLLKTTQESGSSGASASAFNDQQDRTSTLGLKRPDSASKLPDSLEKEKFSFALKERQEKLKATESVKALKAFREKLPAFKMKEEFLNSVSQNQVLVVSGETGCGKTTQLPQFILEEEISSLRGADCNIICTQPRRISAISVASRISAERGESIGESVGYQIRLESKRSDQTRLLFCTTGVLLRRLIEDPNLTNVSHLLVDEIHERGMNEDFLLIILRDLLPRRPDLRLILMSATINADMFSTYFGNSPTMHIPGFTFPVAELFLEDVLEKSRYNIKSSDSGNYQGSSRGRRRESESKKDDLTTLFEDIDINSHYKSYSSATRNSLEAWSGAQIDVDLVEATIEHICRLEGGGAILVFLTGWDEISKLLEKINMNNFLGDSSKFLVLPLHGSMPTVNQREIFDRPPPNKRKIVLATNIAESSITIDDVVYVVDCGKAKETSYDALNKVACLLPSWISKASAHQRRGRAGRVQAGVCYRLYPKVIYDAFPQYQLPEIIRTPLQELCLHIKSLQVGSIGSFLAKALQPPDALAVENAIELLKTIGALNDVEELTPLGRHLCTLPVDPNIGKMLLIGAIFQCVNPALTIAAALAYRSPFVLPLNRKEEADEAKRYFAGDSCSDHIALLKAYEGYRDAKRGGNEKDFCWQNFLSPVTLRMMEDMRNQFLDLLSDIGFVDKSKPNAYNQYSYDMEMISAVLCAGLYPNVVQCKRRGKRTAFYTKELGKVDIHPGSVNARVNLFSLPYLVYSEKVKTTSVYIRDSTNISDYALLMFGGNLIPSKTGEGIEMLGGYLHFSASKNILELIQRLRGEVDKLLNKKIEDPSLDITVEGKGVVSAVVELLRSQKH

DExH15 = biological target: T2, DExH15 (Arabidopsis thaliana, UniProt B9DFG3 1-1171); experiment: as above; details: protein: recombinant; tags: 6xHis-SUMO removed; label: 3'-FAM; G4, 3' ss tail 15 nt
T2 sequence: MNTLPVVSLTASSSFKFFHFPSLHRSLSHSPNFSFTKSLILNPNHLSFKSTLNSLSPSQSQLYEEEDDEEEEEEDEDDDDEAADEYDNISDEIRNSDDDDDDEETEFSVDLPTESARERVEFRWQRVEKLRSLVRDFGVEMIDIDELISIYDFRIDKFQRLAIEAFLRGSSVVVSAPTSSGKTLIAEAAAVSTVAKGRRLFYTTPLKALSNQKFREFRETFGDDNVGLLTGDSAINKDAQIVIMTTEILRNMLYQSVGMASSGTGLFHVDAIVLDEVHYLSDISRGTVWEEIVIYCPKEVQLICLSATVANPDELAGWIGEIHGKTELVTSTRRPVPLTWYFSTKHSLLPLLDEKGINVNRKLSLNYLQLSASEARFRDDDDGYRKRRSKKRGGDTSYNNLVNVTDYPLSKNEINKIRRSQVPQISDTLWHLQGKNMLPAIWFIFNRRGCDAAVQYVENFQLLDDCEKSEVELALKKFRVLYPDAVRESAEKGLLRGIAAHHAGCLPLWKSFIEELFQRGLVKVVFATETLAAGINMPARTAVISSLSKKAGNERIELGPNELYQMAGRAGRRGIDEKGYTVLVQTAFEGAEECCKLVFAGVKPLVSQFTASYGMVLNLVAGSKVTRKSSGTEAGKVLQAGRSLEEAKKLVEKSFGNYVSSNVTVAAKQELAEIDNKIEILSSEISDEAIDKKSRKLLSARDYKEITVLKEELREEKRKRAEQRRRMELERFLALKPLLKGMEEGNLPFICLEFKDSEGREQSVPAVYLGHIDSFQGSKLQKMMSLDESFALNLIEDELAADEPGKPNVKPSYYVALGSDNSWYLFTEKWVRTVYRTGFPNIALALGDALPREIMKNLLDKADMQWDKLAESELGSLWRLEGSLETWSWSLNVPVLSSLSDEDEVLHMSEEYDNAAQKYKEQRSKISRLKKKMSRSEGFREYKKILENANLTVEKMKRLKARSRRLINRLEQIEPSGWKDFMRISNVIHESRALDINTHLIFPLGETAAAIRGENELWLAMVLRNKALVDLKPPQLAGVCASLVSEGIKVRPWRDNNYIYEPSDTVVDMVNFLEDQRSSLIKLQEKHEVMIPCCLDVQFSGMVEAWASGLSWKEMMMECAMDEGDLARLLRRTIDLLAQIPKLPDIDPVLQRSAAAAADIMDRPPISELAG

Binder: GGGAGGGAAGGGGAAGGGGUUUUUUUUUUUUUUU (structured_RNA) [G4S (3' tail rG4)]
- binding result (DExH1): binds
- binding result (DExH15): binds
